Columns and labels:
Assay in all cases: purified protein
Details in all cases: 1.2 mM L-Trp, 25 mM Tris, 5 mM MgCl2, 50 mM KCl, pH 7.5, 35 °C
purified protein [1] = substrate: CC(C)=CCOP(=O)(O)OP(=O)(O)O
purified protein [2] = substrate: C/C(Br)=C/COP(=O)(O)OP(=O)(O)O
purified protein [3] = substrate: O=P(O)(O)OP(=O)(O)OCc1ccc(F)cc1
purified protein [4] = substrate: COc1cccc(COP(=O)(O)OP(=O)(O)O)c1
purified protein [5] = substrate: CCC(=CCOP(=O)(O)OP(=O)(O)O)CC
purified protein [6] = substrate: O=P(O)(O)OP(=O)(O)OCc1ccc(Cl)cc1
purified protein [7] = substrate: CC=CCOP(=O)(O)OP(=O)(O)O
purified protein [8] = substrate: O=P(O)(O)OP(=O)(O)OCc1ccccc1
purified protein [9] = substrate: O=P(O)(O)OP(=O)(O)OCc1ccc(Br)cc1
purified protein [10] = substrate: O=P(O)(O)OP(=O)(O)OCC=C1CCCC1
purified protein [11] = substrate: COc1ccccc1COP(=O)(O)OP(=O)(O)O

B1: FgaPT2 (Aspergillus fumigatus Af293) (protein)
chain: MKAANASSAEAYRVLSRAFRFDNEDQKLWWHSTAPMFAKMLETANYTTPCQYQYLITYKECVIPSLGCYPTNSAPRWLSILTRYGTPFELSLNCSNSIVRYTFEPINQHTGTDKDPFNTHAIWESLQHLLPLEKSIDLEWFRHFKHDLTLNSEESAFLAHNDRLVGGTIRTQNKLALDLKDGRFALKTYIYPALKAVVTGKTIHELVFGSVRRLAVREPRILPPLNMLEEYIRSRGSKSTASPRLVSCDLTSPAKSRIKIYLLEQMVSLEAMEDLWTLGGRRRDASTLEGLSLVRELWDLIQLSPGLKSYPAPYLPLGVIPDERLPLMANFTLHQNDPVPEPQVYFTTFGMNDMAVADALTTFFERRGWSEMARTYETTLKSYYPHADHDKLNYLHAYISFSYRDRTPYLSVYLQSFETGDWAVANLSESKVKCQDAACQPTSLPPDLSKTGVYYSGLH
- kcat (purified protein [1]): 0.833 ± 0.0167 s⁻¹
- kcat/Km (purified protein [1]): 5820 ± 467 M⁻¹ s⁻¹
- kcat (purified protein [2]): 0.00783 ± 0.000167 s⁻¹
- kcat/Km (purified protein [2]): 21.7 ± 1.67 M⁻¹ s⁻¹
- kcat (purified protein [3]): 0.0046 ± 6.67e-05 s⁻¹
- kcat/Km (purified protein [3]): 11.5 ± 0.667 M⁻¹ s⁻¹
- kcat (purified protein [4]): 0.00283 ± 8.33e-05 s⁻¹
- kcat/Km (purified protein [4]): 3.83 ± 0.333 M⁻¹ s⁻¹
- kcat (purified protein [5]): 0.108 ± 0.00167 s⁻¹
- kcat/Km (purified protein [5]): 283 ± 16.7 M⁻¹ s⁻¹
- kcat (purified protein [6]): 0.00327 ± 6.67e-05 s⁻¹
- kcat/Km (purified protein [6]): 7.67 ± 0.5 M⁻¹ s⁻¹
- kcat (purified protein [7]): 0.0095 ± 0.000333 s⁻¹
- kcat/Km (purified protein [7]): 65 ± 6.67 M⁻¹ s⁻¹
- kcat (purified protein [8]): 0.0227 ± 0.000333 s⁻¹
- kcat/Km (purified protein [8]): 103 ± 5 M⁻¹ s⁻¹
- kcat (purified protein [9]): 0.00223 ± 5e-05 s⁻¹
- kcat/Km (purified protein [9]): 7 ± 0.667 M⁻¹ s⁻¹
- kcat (purified protein [10]): 0.084 ± 0.003 s⁻¹
- kcat/Km (purified protein [10]): 267 ± 33.3 M⁻¹ s⁻¹
- kcat (purified protein [11]): 0.0322 ± 0.000833 s⁻¹
- kcat/Km (purified protein [11]): 56.7 ± 3.33 M⁻¹ s⁻¹
